# Reference: patent publication US20110263454A1, “Methods of Identifying Functional Characteristics of Promoters, Transcription Modifying Proteins and Transcription Modulating Agents” (Salk Institute for Biological Studies, priority 2008, published 2011)
# B1: CTF3: COUP-TF3 (NR2F6), cDNA driver (protein, UniProt P10588 1-404, looked up)
# Nuclear receptor subfamily 2 …: MAMVTGGWGGPGGDTNGVDKAGGYPRAAEDDSASPPGAASDAEPGDEERPGLQVDCVVCGDKSSGKHYGVFTCEGCKSFFKRSIRRNLSYTCRSNRDCQIDQHHRNQCQYCRLKKCFRVGMRKEAVQRGRIPHSLPGAVAASSGSPPGSALAAVASGGDLFPGQPVSELIAQLLRAEPYPAAAGRFGAGGGAAGAVLGIDNVCELAARLLFSTVEWARHAPFFPELPVADQVALLRLSWSELFVLNAAQAALPLHTAPLLAAAGLHAAPMAAERAVAFMDQVRAFQEQVDKLGRLQVDSAEYGCLKAIALFTPDACGLSDPAHVESLQEKAQVALTEYVRAQYPSQPQRFGRLLLRLPALRAVPASLISQLFFMRLVGKTPIETLIRDMLLSGSTFNWPYGSGQ
# B2: NR4a2: NR4a2 (NR4A2; NURR1), nuclear hormone receptor cDNA driver (protein, UniProt P43354 1-598, looked up)
# Nuclear receptor subfamily 4 …: MPCVQAQYGSSPQGASPASQSYSYHSSGEYSSDFLTPEFVKFSMDLTNTEITATTSLPSFSTFMDNYSTGYDVKPPCLYQMPLSGQQSSIKVEDIQMHNYQQHSHLPPQSEEMMPHSGSVYYKPSSPPTPTTPGFQVQHSPMWDDPGSLHNFHQNYVATTHMIEQRKTPVSRLSLFSFKQSPPGTPVSSCQMRFDGPLHVPMNPEPAGSHHVVDGQTFAVPNPIRKPASMGFPGLQIGHASQLLDTQVPSPPSRGSPSNEGLCAVCGDNAACQHYGVRTCEGCKGFFKRTVQKNAKYVCLANKNCPVDKRRRNRCQYCRFQKCLAVGMVKEVVRTDSLKGRRGRLPSKPKSPQEPSPPSPPVSLISALVRAHVDSNPAMTSLDYSRFQANPDYQMSGDDTQHIQQFYDLLTGSMEIIRGWAEKIPGFADLPKADQDLLFESAFLELFVLRLAYRSNPVEGKLIFCNGVVLHRLQCVRGFGEWIDSIVEFSSNLQNMNIDISAFSCIAALAMVTERHGLKEPKRVEELQNKIVNCLKDHVTFNNGGLNRPNYLSKLLGKLPELRTLCTQGLQRIFYLKLEDLVPPPAIIDKLFLDTLPF
# B3: hMR: Mineralocorticoid Receptor (NR3C2, MR), cDNA driver (protein, UniProt P08235 1-984, looked up)
# Mineralocorticoid receptor: METKGYHSLPEGLDMERRWGQVSQAVERSSLGPTERTDENNYMEIVNVSCVSGAIPNNSTQGSSKEKQELLPCLQQDNNRPGILTSDIKTELESKELSATVAESMGLYMDSVRDADYSYEQQNQQGSMSPAKIYQNVEQLVKFYKGNGHRPSTLSCVNTPLRSFMSDSGSSVNGGVMRAVVKSPIMCHEKSPSVCSPLNMTSSVCSPAGINSVSSTTASFGSFPVHSPITQGTPLTCSPNVENRGSRSHSPAHASNVGSPLSSPLSSMKSSISSPPSHCSVKSPVSSPNNVTLRSSVSSPANINNSRCSVSSPSNTNNRSTLSSPAASTVGSICSPVNNAFSYTASGTSAGSSTLRDVVPSPDTQEKGAQEVPFPKTEEVESAISNGVTGQLNIVQYIKPEPDGAFSSSCLGGNSKINSDSSFSVPIKQESTKHSCSGTSFKGNPTVNPFPFMDGSYFSFMDDKDYYSLSGILGPPVPGFDGNCEGSGFPVGIKQEPDDGSYYPEASIPSSAIVGVNSGGQSFHYRIGAQGTISLSRSARDQSFQHLSSFPPVNTLVESWKSHGDLSSRRSDGYPVLEYIPENVSSSTLRSVSTGSSRPSKICLVCGDEASGCHYGVVTCGSCKVFFKRAVEGQHNYLCAGRNDCIIDKIRRKNCPACRLQKCLQAGMNLGARKSKKLGKLKGIHEEQPQQQQPPPPPPPPQSPEEGTTYIAPAKEPSVNTALVPQLSTISRALTPSPVMVLENIEPEIVYAGYDSSKPDTAENLLSTLNRLAGKQMIQVVKWAKVLPGFKNLPLEDQITLIQYSWMCLSSFALSWRSYKHTNSQFLYFAPDLVFNEEKMHQSAMYELCQGMHQISLQFVRLQLTFEEYTIMKVLLLLSTIPKDGLKSQAAFEEMRTNYIKELRKMVTKCPNNSGQSWQRFYQLTKLLDSMHDLVSDLLEFCFYTFRESHALKVEFPAMLVEIISDQLPKVESGNAKPLYFHRK
# B4: PR: Progesterone Receptor (NR3C3), cDNA driver (protein, UniProt P06401 1-933, looked up)
# Progesterone receptor: MTELKAKGPRAPHVAGGPPSPEVGSPLLCRPAAGPFPGSQTSDTLPEVSAIPISLDGLLFPRPCQGQDPSDEKTQDQQSLSDVEGAYSRAEATRGAGGSSSSPPEKDSGLLDSVLDTLLAPSGPGQSQPSPPACEVTSSWCLFGPELPEDPPAAPATQRVLSPLMSRSGCKVGDSSGTAAAHKVLPRGLSPARQLLLPASESPHWSGAPVKPSPQAAAVEVEEEDGSESEESAGPLLKGKPRALGGAAAGGGAAAVPPGAAAGGVALVPKEDSRFSAPRVALVEQDAPMAPGRSPLATTVMDFIHVPILPLNHALLAARTRQLLEDESYDGGAGAASAFAPPRSSPCASSTPVAVGDFPDCAYPPDAEPKDDAYPLYSDFQPPALKIKEEEEGAEASARSPRSYLVAGANPAAFPDFPLGPPPPLPPRATPSRPGEAAVTAAPASASVSSASSSGSTLECILYKAEGAPPQQGPFAPPPCKAPGASGCLLPRDGLPSTSASAAAAGAAPALYPALGLNGLPQLGYQAAVLKEGLPQVYPPYLNYLRPDSEASQSPQYSFESLPQKICLICGDEASGCHYGVLTCGSCKVFFKRAMEGQHNYLCAGRNDCIVDKIRRKNCPACRLRKCCQAGMVLGGRKFKKFNKVRVVRALDAVALPQPVGVPNESQALSQRFTFSPGQDIQLIPPLINLLMSIEPDVIYAGHDNTKPDTSSSLLTSLNQLGERQLLSVVKWSKSLPGFRNLHIDDQITLIQYSWMSLMVFGLGWRSYKHVSGQMLYFAPDLILNEQRMKESSFYSLCLTMWQIPQEFVKLQVSQEEFLCMKVLLLLNTIPLEGLRSQTQFEEMRSSYIRELIKAIGLRQKGVVSSSQRFYQLTKLLDNLHDLVKQLHLYCLNTFIQSRALSVEFPEMMSEVIAAQLPKILAGMVKPLLFHKK
# Test system: mAgrp promoter
# Test: NHR-promoter luciferase screen, mAgrp promoter
# Assay type: cell-based, mouse
# Conditions: Table 6d; luciferase activity relative to control (control = 1.00)
# Procedure, shortened: (§1)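 CV-1 cells were co-transfected with 50 ng NHR (homodimer or NHR/RXR heterodimer), 100 ng promoter-luciferase construct and 50 ng LacZ. Luciferase was normalized to LacZ and to a no-NHR/no-ligand control.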
row,Molecule,Results of assays of transcription factor (+/- ligand) with mAgrp
1,B1,0.86
2,B2,0.88
3,B3,0.79
4,B4,1.13

# Same assay, conditions: mAgrp promoter; HR component with or without ligand
row,Molecule,"Luc. act., normalized to lacZ"
1,B1,34.2
2,B2,35.1
3,B3,31.2
4,B4,44.7

# Same assay, conditions: mAgrp promoter; HR component with or without ligand; relative to control
row,Molecule,"Normalized Luc. act., normalized to control"
1,B1,0.9
2,B2,0.9
3,B3,0.8
4,B4,1.1

# Test system: mPOMC promoter
# Test: NHR-promoter luciferase screen, mPOMC promoter
# Assay type: cell-based, mouse
# Conditions: Table 6d; luciferase activity relative to control (control = 1.00)
# Procedure, shortened: as §1
row,Molecule,Results of assays of transcription factor (+/- ligand) with mPOMC
1,B1,0.75
2,B2,1.05
3,B3,0.73
4,B4,1.10

# Same assay, conditions: mPOMC promoter; HR component with or without ligand
row,Molecule,"Luc. act., normalized to lacZ"
1,B1,51.8
2,B2,72.2
3,B3,50.3
4,B4,75.8

# Same assay, conditions: mPOMC promoter; HR component with or without ligand; relative to control
row,Molecule,"Normalized Luc. act., normalized to control"
1,B1,0.8
2,B2,1.0
3,B3,0.7
4,B4,1.1

# Test system: mADRP promoter
# Test: NHR-promoter luciferase screen, mADRP promoter
# Assay type: cell-based, mouse
# Conditions: ADRP promoter; HR/ligand component
# Procedure, shortened: as §1
Molecule,"Luc. act., normalized to lacZ","Normalized Luc. act., normalized to control"
B1,462.7,0.9
B2,382.8,0.8
B3,306.4,0.6
B4,497.2,1.0

# Same assay, conditions: transcription factor +/- ligand; control = 1.00
row,Molecule,mADRP promoter reporter activity
1,B1,0.93
2,B2,0.77
3,B3,0.62
4,B4,1.00

# Test system: mAdiponectin promoter
# Test: NHR-promoter luciferase screen, mAdiponectin promoter
# Assay type: cell-based, mouse
# Conditions: Adiponectin; HR component without or with its ligand
# Procedure, shortened: as §1
Molecule,"Luc. act., normalized to lacZ","Normalized Luc. act., normalized to control"
B1,71.0,1.1
B2,35.8,0.6
B3,32.3,0.5
B4,52.9,0.8

# Same assay, conditions: transcription factor +/- ligand; control = 1.00
row,Molecule,mAdiponectin promoter reporter activity
1,B1,1.13
2,B2,0.57
3,B3,0.51
4,B4,0.84

# Test system: RevErba promoter
# Test: NHR-promoter luciferase screen, RevErba (RVRa) promoter
# Assay type: cell-based
# Design: key to mRevErba promoter reporter activity / Normalized Luc. act., normalized to control: luciferase activity normalized to lacZ and to control (no NHR/ligand)
# Conditions: RVRa promoter; HR component without or with ligand
# Procedure, shortened: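 CV-1 cells co-transfected with NHR (pcDNA3.1, C-terminal V5H6 tag) as homodimer or RXR heterodimer, RevErbα promoter–luciferase reporter and LacZ transfection control; ligand added where applicable. Luciferase normalized to LacZ and to no-NHR/no-ligand control.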
Molecule,"Luc. act., normalized to lacZ","Normalized Luc. act., normalized to control"
B1,19.1,0.7
B2,20.6,0.7
B3,13.7,0.5
B4,24.1,0.9

# Same assay, conditions: RVRa promoter; given only where activity is below control
row,Molecule,negative reciprocal of normalized Luc. act. (fold repression; Table 33)
1,B1,−1.467
2,B2,−1.357
3,B3,−2.036
4,B4,−1.16

# Same assay, conditions: RVRa promoter; log10 of activity normalized to control
row,Molecule,"normalized Luc. act. on a logarithmic scale (column without head, Table 33)"
1,B1,−0.17
2,B2,−0.13
3,B3,−0.31
4,B4,−0.06

# Same assay, conditions: transcription factor +/- ligand; control = 1.00
row,Molecule,mRevErba promoter reporter activity
1,B1,0.68
2,B2,0.74
3,B3,0.49
4,B4,0.86
